Data taken from patent EP2103936A1 (Institut Pasteur, dated 2009).
Where “and” joins values, the source holds several entries; their conditions need not be identical. Equal values may be shown once.

Molecular target: maltose binding protein MalE from E. coli (Escherichia coli, UniProt P0AEX9 27-396 = MBP)

B1: DarpOff7(wt) (designed binder)
chain: MRGSHHHHHHGSDLGRKLLEAARAGQDDEVRILMANGADVNAADNTGTTPLHLAAYSGHLEIVEVLLKHGADVDASDVFGYTPLHLAAYWGHLEIVEVLLKNGADVNAMDSDGMTPLHLAAKWGYLEIVEVLLKHGADVNAQDKFGKTAFDISIDNGNEDLAEILQKLN
Kd: 11 nM and 5.6 nM
